The values below come from US10081665B2, “Peptides and combination of peptides for use in immunotherapy against various tumors” (immatics biotechnologies GmbH, priority 2015, dated 2018).

This test addresses HLA-A*02:01 (Homo sapiens, UniProt P04439, D140Y/D185E/D98H/E176V/E277Q/G131W/G231S/I119V/I121R/I166T/I218V/L300P/L318F/N151K/N90K/P208A/P217A/Q86G/Q94H/R138H/R169H/T345S). Description: MHC binding assay (UV-ligand exchange, beta2m ELISA). To be noted: binding to HLA-A*02:01, β2m ELISA. An excerpt:
Candidate peptides for T cell based therapies according to the present invention were further tested for their MHC binding capacity (affinity). The individual peptide-MHC complexes were produced by UV-ligand exchange, where a UV-sensitive peptide is cleaved upon UV-irradiation, and exchanged with the peptide of interest as analyzed. Only peptide candidates that can effectively bind and stabilize the peptide-receptive MHC molecules prevent dissociation of the MHC complexes. To determine the yield of the exchange reaction, an ELISA was performed based on the detection of the light chain (β2m) of stabilized MHC complexes. The assay was performed as generally described in Rodenko et al. (Rodenko et al., 2006).
96 well MAXISorp plates (NUNC) were coated over night with 2 ug/ml streptavidin in PBS at room temperature, washed 4× and blocked for 1 h at 37° C. in 2% BSA containing blocking buffer. Refolded HLA-A*02:01/MLA-001 monomers served as standards, covering the range of 15-500 ng/ml. Peptide-MHC monomers of the UV-exchange reaction were diluted 100 fold in blocking buffer. Samples were incubated for 1 h at 37° C., washed four times, incubated with 2 ug/ml HRP conjugated anti-82m for 1 h at 37° C., washed again and detected with TMB solution that is stopped with […]. Absorption was measured at 450 nm. Candidate peptides that show a high exchange yield (preferably higher than 50%, most preferred higher than 75%) are generally preferred for a generation and production of antibodies or fragments thereof, and/or T cell receptors or fragments thereof, as they show sufficient avidity to the MHC molecules and prevent dissociation of the MHC complexes.
On to “1 (KLQEKIQEL; listed as Homo sapiens) [compound 1]”, for which the “Peptide exchange (MHC class I binding score, peptide exchange yield)” value (from here on “Peptide exchange”) was “++++ (≥75% = ++++)”.

As for “3 (RVIDDSLVVGV; listed as Homo sapiens) [compound 3]”, the “Peptide exchange” value is reported as “+++ (≥50 = +++)”. The entry for “5 (GLVDIMVHL; listed as Homo sapiens) [compound 5]” is “+++ (≥50 = +++)”; for “6 (FLNAIETAL; listed as Homo sapiens) [compound 6]” it is “++++ (≥75% = ++++)”; for “7 (ALLQALMEL; listed as Homo sapiens) [compound 7]” it is “+++ (≥50 = +++)”. For “10 (QLIEKNWLL; listed as Homo sapiens) [compound 10]”, the “Peptide exchange” value was “+++ (≥50 = +++)”. The result for “11 (LLDPKTIFL; listed as Homo sapiens) [compound 11]” reads “+++ (≥50 = +++)”. The result for “12 (RLLDPKTIFL; listed as Homo sapiens) [compound 12]” reads “+++ (≥50 = +++)”; that for “13 (RLHDENILL; listed as Homo sapiens) [compound 13]”, “+++ (≥50 = +++)”. As for “16 (SLADLSLLL; listed as Homo sapiens) [compound 16]”, the “Peptide exchange” value was “+++ (≥50 = +++)”.

Turning to “19 (KVFELDLVTL; listed as Homo sapiens) [compound 19]”, the “Peptide exchange” value was “++ (≥20% = ++)”.

On to “20 (ALVEKGEFAL; listed as Homo sapiens) [compound 20]”, for which the “Peptide exchange” value was “++ (≥20% = ++)”. In the case of “21 (YLMDDFSSL; listed as Homo sapiens) [compound 21]”, the “Peptide exchange” value is given as “+++ (≥50 = +++)”. Consider “22 (LMYPYIYHV; listed as Homo sapiens) [compound 22]”, for which the “Peptide exchange” value is “+++ (≥50 = +++)”.

For the substance “23 (ALLSPLSLA; listed as Homo sapiens) [compound 23]”, the “Peptide exchange” value is on record as “+++ (≥50 = +++)”. The entry for “24 (KVWSDVTPL; listed as Homo sapiens) [compound 24]” is “+++ (≥50 = +++)”; for “25 (LLWGHPRVALA; listed as Homo sapiens) [compound 25]” it is “+++ (≥50 = +++)”. For “26 (VLDGKVAVV; listed as Homo sapiens) [compound 26]”, the “Peptide exchange” value was “+++ (≥50 = +++)”.

“28 (IKVTDPQLLEL; listed as Homo sapiens) [compound 28]”: the “Peptide exchange” value is “++ (≥20% = ++)”. The result for “30 (IITEVITRL; listed as Homo sapiens) [compound 30]” reads “+++ (≥50 = +++)”. Regarding “31 (GLLETTGLLAT; listed as Homo sapiens) [compound 31]”, the “Peptide exchange” value is on record as “+++ (≥50 = +++)”.

As to “33 (TLDRNSLYV; listed as Homo sapiens) [compound 33]”, the “Peptide exchange” value is “++ (≥20% = ++)”. Take “36 (TVLQELINV; listed as Homo sapiens) [compound 36]”: the “Peptide exchange” value is reported as “+++ (≥50 = +++)”. The result for “37 (QIVELIEKI; listed as Homo sapiens) [compound 37]” reads “++ (≥20% = ++)”; that for “38 (VLQQESNFL; listed as Homo sapiens) [compound 38]”, “++ (≥20% = ++)”; that for “40 (KIWEELSVLEV; listed as Homo sapiens) [compound 40]”, “+++ (≥50 = +++)”. The entry for “41 (IVTEIISEI; listed as Homo sapiens) [compound 41]” is “+++ (≥50 = +++)”; for “42 (KQMSISTGL; listed as Homo sapiens) [compound 42]” it is “++ (≥20% = ++)”. Take “44 (AVFNLVHVV; listed as Homo sapiens) [compound 44]”: the “Peptide exchange” value is on record as “+++ (≥50 = +++)”. The entry for “45 (FLPVSVVYV; listed as Homo sapiens) [compound 45]” is “+++ (≥50 = +++)”; for “47 (GLNGFNVLL; listed as Homo sapiens) [compound 47]” it is “+++ (≥50 = +++)”; for “48 (KISDFGLATV; listed as Homo sapiens) [compound 48]” it is “+++ (≥50 = +++)”. The entry for “49 (KLIGNIHGNEV; listed as Homo sapiens) [compound 49]” is “++ (≥20% = ++)”; for “51 (LDSEALLTL; listed as Homo sapiens) [compound 51]” it is “++ (≥20% = ++)”; for “52 (TIGIPFPNV; listed as Homo sapiens) [compound 52]” it is “++ (≥20% = ++)”. For the substance “53 (AQHLSTLLL; listed as Homo sapiens) [compound 53]”, the “Peptide exchange” value was “+ (≥10% = +)”. The entry for “54 (YLVPGLVAA; listed as Homo sapiens) [compound 54]” is “+++ (≥50 = +++)”. Turning to “55 (HLFDKIIKI; listed as Homo sapiens) [compound 55]”, the “Peptide exchange” value was “+++ (≥50 = +++)”.

For “57 (TLYPGRFDYV; listed as Homo sapiens) [compound 57]”, the “Peptide exchange” value is given as “++ (≥20% = ++)”.

In the case of “58 (HLLGEGAFAQV; listed as Homo sapiens) [compound 58]”, the “Peptide exchange” value is recorded as “+++ (≥50 = +++)”. Consider “59 (ALADGIKSFLL; listed as Homo sapiens) [compound 59]”, for which the “Peptide exchange” value is “+++ (≥50 = +++)”. The result for “60 (YLFSQGLQGL; listed as Homo sapiens) [compound 60]” reads “+++ (≥50 = +++)”; that for “61 (ALYPKEITL; listed as Homo sapiens) [compound 61]”, “+++ (≥50 = +++)”; that for “62 (SLVENIHVL; listed as Homo sapiens) [compound 62]”, “+++ (≥50 = +++)”.

For the substance “63 (KLLPMVIQL; listed as Homo sapiens) [compound 63]”, the “Peptide exchange” value is on record as “+++ (≥50 = +++)”.

In the case of “64 (SLYAGSNNQV; listed as Homo sapiens) [compound 64]”, the “Peptide exchange” value is “++ (≥20% = ++)”.

Turning to “65 (SLSEKSPEV; listed as Homo sapiens) [compound 65]”, the “Peptide exchange” value was “++ (≥20% = ++)”.
